Measurements as given in doi:10.1101/2021.02.08.430206 (bioRxiv, 2021).
Changes are numbered by the printed parent chain.

T1: N16,27,33Q-ACKR1 mutant (non-glycosylated) (human, UniProt Q16570 1-336, N^16,27,33Q | N^16,27,33Q | N^16,27,33Q)
T1 sequence: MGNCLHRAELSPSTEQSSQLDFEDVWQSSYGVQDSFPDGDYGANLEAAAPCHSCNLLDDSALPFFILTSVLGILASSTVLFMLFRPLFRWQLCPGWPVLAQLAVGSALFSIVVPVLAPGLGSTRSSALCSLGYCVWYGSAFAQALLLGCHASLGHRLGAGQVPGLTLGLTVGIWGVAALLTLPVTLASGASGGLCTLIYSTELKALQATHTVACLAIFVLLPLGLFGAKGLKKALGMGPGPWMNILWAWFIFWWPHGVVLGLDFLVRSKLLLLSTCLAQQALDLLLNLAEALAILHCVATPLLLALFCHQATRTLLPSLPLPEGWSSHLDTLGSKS

T2: gamma-hemolysin component HlgA (S component leukotoxin) of Staphylococcus aureus (Staphylococcus aureus), P0A074
T2 chain: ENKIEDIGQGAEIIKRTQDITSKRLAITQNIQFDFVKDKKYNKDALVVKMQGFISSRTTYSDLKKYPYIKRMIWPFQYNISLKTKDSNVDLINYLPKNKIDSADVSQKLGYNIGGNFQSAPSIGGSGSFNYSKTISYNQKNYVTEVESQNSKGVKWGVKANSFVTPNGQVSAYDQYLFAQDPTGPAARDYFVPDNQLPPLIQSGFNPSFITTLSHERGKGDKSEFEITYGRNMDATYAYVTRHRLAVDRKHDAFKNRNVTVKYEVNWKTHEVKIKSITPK

T3: ACKR1 treated with PNGase F (deglycosylated ACKR1) (human, UniProt Q16570 1-336, N-glycans removed by PNGase F)
T3 sequence: T1 sequence with Q16N, Q27N, Q33N

B1: gamma-hemolysin component HlgA (S component leukotoxin) of Staphylococcus aureus (natural protein)
chain: T2 chain
B2: atypical chemokine receptor 1 (ACKR1), purified, glycosylated wild type (receptor)
chain: T1 sequence with Q16N, Q27N, Q33N
modifications: N-glycosylated at N16, N27 and N33
B3: gamma-hemolysin component HlgB (F component leukotoxin) of Staphylococcus aureus (natural protein)
chain: NAEGKITPVSVKKVDDKVTLYKTTATADSDKFKISQILTFNFIKDKSYDKDTLVLKATGNINSGFVKPNPNDYDFSKLYWGAKYNVSISSQSNDSVNVVDYAPKNQNEEFQVQNTLGYTFGGDISISNGLSGGLNGNTAFSETINYKQESYRTTLSRNTNYKNVGWGVEAHKIMNNGWGPYGRDSFHPTYGNELFLAGRQSSAYAGQNFIAQHQMPLLSRSNFNPEFLSVLSHRQDGAKKSKITVTYQREMDLYQIRWNGFYWAGANYKNFKTRTFKSTYEIDWENHKVKLLDTKETENNK

How the values were obtained:
[1] = molecular target: SNAP-tag-fused ACKR1 receptor (human) (UniProt Q16570); experiment: FRET or BRET
[2] = molecular target: T1, N16,27,33Q-ACKR1 mutant …; experiment: HDX-MS
[3] = molecular target: T2, gamma-hemolysin component HlgA (S …); experiment: native MS; details: remark: other sources report otherwise
[4] = molecular target: B3; experiment: native MS
[5] = molecular target: T3, ACKR1 treated with PNGase F …; experiment: native MS
[6] = molecular target: the molecule itself; experiment: native MS

Molecule: HlgAB, equimolar mixture of HlgA and HlgB (from UniProt P0A074;P0A077) (complex)
- IC50 [1]: 6.2 nM

Molecule: B1
- binding result [2]: binds
- relative quantification in the equimolar mixture (HlgA monomer 100%) [3]: 1.5%
- stoichiometry N [3]: 2
- binding result [4]: binds
- stoichiometry N [5]: 1

Molecule: B2
- stoichiometry N [6]: 2

Molecule: B3
- binding result [2]: binds
- fold dimer-to-monomer ratio against HlgA [6]: 2 fold
- stoichiometry N [6]: 2
